From patent publication EP4762086
“And” between values parts separate entries of the source, which are not always exact repeats. Equal values may be shown once.

Molecular target: MUC5AC antigen (human, UniProt P98088)
Assay: SPR

Kd: 7.38 nM and 5.6 nM
B1: NEO-102 (Ensituximab) (antibody, V domains shown)
VH: QVQLKESGPDLVAPSQSLSITCTVSGFELSKFGVIWVRQPPGKGLEWLGVIWGDGSTVYNSKLISRLSISKENSKSQVFLKLNSLQADDTATYYCVKPGGDYWGHGTSVTVSS
VL: QVVLTQSPVIMSASPGEKVTMTCSASSSISYMYWYQQKPGTSPKRWIYDTSKLGSGVPARFSGSGSGTSYSLTISNMEAGDAATYYCHQRDSYPWTFGGGTNLEIK
